The numbers were not newly measured in article PMC4059402 (Chembiochem : a European journal of chemical biology, 2014), which cites them from elsewhere.

For the data set the following is noted: with laurate.

B1: wild-type CYP102A1: long-chain fatty acid monoxygenase CYP102A1 (P450BM3) from B. megaterium (protein, UniProt P14779 1-1049, looked up)
Bifunctional cytochrome …: MTIKEMPQPKTFGELKNLPLLNTDKPVQALMKIADELGEIFKFEAPGRVTRYLSSQRLIKEACDESRFDKNLSQALKFVRDFAGDGLFTSWTHEKNWKKAHNILLPSFSQQAMKGYHAMMVDIAVQLVQKWERLNADEHIEVPEDMTRLTLDTIGLCGFNYRFNSFYRDQPHPFITSMVRALDEAMNKLQRANPDDPAYDENKRQFQEDIKVMNDLVDKIIADRKASGEQSDDLLTHMLNGKDPETGEPLDDENIRYQIITFLIAGHETTSGLLSFALYFLVKNPHVLQKAAEEAARVLVDPVPSYKQVKQLKYVGMVLNEALRLWPTAPAFSLYAKEDTVLGGEYPLEKGDELMVLIPQLHRDKTIWGDDVEEFRPERFENPSAIPQHAFKPFGNGQRACIGQQFALHEATLVLGMMLKHFDFEDHTNYELDIKETLTLKPEGFVVKAKSKKIPLGGIPSPSTEQSAKKVRKKAENAHNTPLLVLYGSNMGTAEGTARDLADIAMSKGFAPQVATLDSHAGNLPREGAVLIVTASYNGHPPDNAKQFVDWLDQASADEVKGVRYSVFGCGDKNWATTYQKVPAFIDETLAAKGAENIADRGEADASDDFEGTYEEWREHMWSDVAAYFNLDIENSEDNKSTLSLQFVDSAADMPLAKMHGAFSTNVVASKELQQPGSARSTRHLEIELPKEASYQEGDHLGVIPRNYEGIVNRVTARFGLDASQQIRLEAEEEKLAHLPLAKTVSVEELLQYVELQDPVTRTQLRAMAAKTVCPPHKVELEALLEKQAYKEQVLAKRLTMLELLEKYPACEMKFSEFIALLPSIRPRYYSISSSPRVDEKQASITVSVVSGEAWSGYGEYKGIASNYLAELQEGDTITCFISTPQSEFTLPKDPETPLIMVGPGTGVAPFRGFVQARKQLKEQGQSLGEAHLYFGCRSPHEDYLYQEELENAQSEGIITLHTAFSRMPNQPKTYVQHVMEQDGKKLIELLDQGAHFYICGDGSQMAPAVEATLMKSYADVHQVSEADARLWLQQLEEKGRYAKDVWAG
As for B1, the catalytic rate is listed as 1,680 min^−1.
